B1: AfUGM (wild-type) (Aspergillus fumigatus) (protein)
chain: MTHPDISVDVLVIGAGPTGLGAAKRLNQIDGPSWMIVDSNETPGGLASTDVTPEGFLYDVGGHVIFSHYKYFDDCLDEALPKEDDWYTHQRISYVRCQGQWVPYPFQNNISMLPKEEQVKCIDGMIDAALEARVANTKPKTFDEWIVRMMGTGIADLFMRPYNFKVWAVPTTKMQCAWLGERVAAPNLKAVTTNVILGKTAGNWGPNATFRFPARGGTGGIWIAVANTLPKEKTRFGEKGKVTKVNANNKTVTLQDGTTIGYKKLVSTMAVDFLAEAMNDQELVGLTKQLFYSSTHVIGVGVRGSRPERIGDKCWLYFPEDNCPFYRATIFSNYSPYNQPEASKKLPTMQLADGSRPQSTEAKEGPYWSIMLEVSESSMKPVNQETILADCIQGLVNTEMLKPTDEIVSTYHRRFDHGYPTPTLEREGALTQILPKLQDKDIWSRGRFGSWRYEVGNQDHSFMLGVEAVDNIVNGAVELTLNYPDFVNGRQNTERRLVDGAQVFAKSKAQ
B2: MtUGM (Mycobacterium tuberculosis H37Rv) (protein)
chain: MQPMTARFDLFVVGSGFFGLTIAERVATQLDKRVLVLERRPHIGGNAYSEAEPQTGIEVHKYGAHLFHTSNKRVWDYVRQFTDFTDYRHRVFAMHNGQAYQFPMGLGLVSQFFGKYFTPEQARQLIAEQAAEIDTADAQNLEEKAISLIGRPLYEAFVKGYTAKQWQTDPKELPAANITRLPVRYTFDNRYFSDTYEGLPTDGYTAWLQNMAADHRIEVRLNTDWFDVRGQLRPGSPAAPVVYTGPLDRYFDYAEGRLGWRTLDFEVEVLPIGDFQGTAVMNYNDLDVPYTRIHEFRHFHPERDYPTDKTVIMREYSRFAEDDDEPYYPINTEADRALLATYRARAKSETASSKVLFGGRLGTYQYLDMHMAIASALNMYDNVLAPHLRDGVPLLQDGA

Substrate: O=c1ccn([C@@H]2O[C@H](COP(=O)(O)OP(=O)(O)O[C@H]3O[C@@H]([C@H](O)CO)[C@H](O)[C@H]3O)[C@@H](O)[C@H]2O)c(=O)[nH]1
Assay: purified protein
[1] = 25 mM HEPES, 125 mM NaCl, 20 mM dithionite, pH 7.5, 37 °C

Protein | Km [1] [µM] | kcat [1] [s⁻¹] | kcat/Km [1] [M⁻¹ s⁻¹] | Km (pH 7.5, 37.0 °C) [µM] | kcat/Km (pH 7.5, 37.0 °C) [M⁻¹ s⁻¹]
B1 | 110 ± 15 | 72 ± 4 | 650000 ± 90000 | – | –
B2 | – | – | – | 78 ± 16 | 910000 ± 150000

Reference: paper PMC4270374
